Measured values reported in US8822640B2, “Tetrameric streptavidin mutein with reversible biotin binding capability” (UTI Limited Partnership, priority 2011, dated 2014).

Tests used:
[1] = data from U.S. Pat. No. 6,312,916 B1, cited from earlier work
[2] = tested on: biotinylated protein G and biotinylated IgG; assay: Mutein-agarose affinity matrix: purification of biotinylated proteins, matrix stability and reuse; conditions: comparison of FIGS. 7 and 10
Experimental: Other methods. BIAcore biosensor for determining the kinetic parameters, preparation of streptavidin-agarose matrix and purification of biotinylated proteins were performed as previously described (Wu and Wong, 2005a; Wu and Wong, 2005b).
Stable subunit interactions in the 8-aa-loop-H127 mutein. The purified 8-aa-loop-H127C mutein can be immobilized to the agarose matrix with an estimated concentration of 3.8 mg/ml of settled agarose beads. […] Since it is likely that only one subunit in an tetrameric 8-aa-loop-H127C mutein was chemically coupled to the matrix (the other three subunits associated with the immobilized subunit via non-covalent interactions), this observation illustrates that the subunit interactions between the subunits in the tetrameric 8-aa-loop-H127C mutein were stable enough and the non-covalently associated subunits were not washed off from the column under the conditions used for the binding, washing and elution processes.
Application of the 8-aa-loop-H127C mutein-agarose matrices for purification of biotinylated protein G and biotinylated IgG. […] The bound biotinylated proteins could be eluted off from the column using 4 mM biotin (FIGS. 7 and 8).

[3] = Biotin binding data taken from literature / U.S. Pat. No. 6,312,916 B1; conditions: for t1/2, half-life of biotin in the SAV-biotin complex: estimated as 0.693/koff/60 from the cited koff

t1/2, half-life of biotin in the SAV-biotin complex [3]: 1.96 min
t1/2, half-life of biotin in the SAV-biotin complex ([3]; listed as Roche mutein): 1.9 min
biotin binding affinity lower than that of the 8-aa-loop-H127C mutein ([3]; ratio of Kd values): ~10 fold
half-life of biotin in the SAV-biotin complex shorter than that of the 8-aa-loop-H127C mutein ([3]; ratio of t1/2 values): ~14 fold
B1: SAV mutein from Roche: commercially available streptavidin mutein with reversible biotin binding, changes S27R, S45R and L110W (U.S. Pat. No. 6,312,916 B1) (protein)
chain: AEAGITGTWYNQLGRTFIVTAGADGALTGTYERAVGNAESRYVLTGRYDSAPATDGSGTALGWTVAWKNNYRNAHSATTWSGQYVGGAEARINTQWLWTSGTTEANAWKSTLVGHDTFTKVKPSAAS
ka or kon [1]: 45000 M⁻¹ s⁻¹
kd or koff [1]: 0.0059 s⁻¹
Kd ([1]; read-out: Kd (biotin binding affinity)): 130 nM
binding capacity of the matrix for biotinylated protein G [2]: significantly less than that of the 8-aa-loop-H127C mutein
